According to patent publication US20190233494A1 (Sanofi, published 2019):
Starred links: 1 amine or outer side, 2 acyl side, 3 side chain; linkers in the order of their positions; H or OH if unused. Non-standard residues stand in square brackets, D forms with d. Groups on a side chain read outwards from the residue. *: point of attachment. TTDS = 4-[3-[2-[2-(3-aminopropoxy)ethoxy]ethoxy]propylamino]-4-oxo-butanoyl; Trp(5-Cl) = N[C@@H](Cc1c[nH]c2ccc(Cl)cc12)C(=O)O; γGlu = O=C(O)[C@H](CCC(=O)[*:2])N[*:1]; Stearoyl = CCCCCCCCCCCCCCCCCC(=O)*; Palmitoyl = CCCCCCCCCCCCCCCC(=O)*; αMeK = C[C@](N)(CCCCN)C(=O)O; AEEA = NCCOCCOCC(=O)O; Aib = CC(C)(N)C(=O)O

T1: RXFP1 receptor (endogenous, on OVCAR5 cells) (UniProt Q9HBX9 1-757, limits assumed)
T1 sequence (looked up): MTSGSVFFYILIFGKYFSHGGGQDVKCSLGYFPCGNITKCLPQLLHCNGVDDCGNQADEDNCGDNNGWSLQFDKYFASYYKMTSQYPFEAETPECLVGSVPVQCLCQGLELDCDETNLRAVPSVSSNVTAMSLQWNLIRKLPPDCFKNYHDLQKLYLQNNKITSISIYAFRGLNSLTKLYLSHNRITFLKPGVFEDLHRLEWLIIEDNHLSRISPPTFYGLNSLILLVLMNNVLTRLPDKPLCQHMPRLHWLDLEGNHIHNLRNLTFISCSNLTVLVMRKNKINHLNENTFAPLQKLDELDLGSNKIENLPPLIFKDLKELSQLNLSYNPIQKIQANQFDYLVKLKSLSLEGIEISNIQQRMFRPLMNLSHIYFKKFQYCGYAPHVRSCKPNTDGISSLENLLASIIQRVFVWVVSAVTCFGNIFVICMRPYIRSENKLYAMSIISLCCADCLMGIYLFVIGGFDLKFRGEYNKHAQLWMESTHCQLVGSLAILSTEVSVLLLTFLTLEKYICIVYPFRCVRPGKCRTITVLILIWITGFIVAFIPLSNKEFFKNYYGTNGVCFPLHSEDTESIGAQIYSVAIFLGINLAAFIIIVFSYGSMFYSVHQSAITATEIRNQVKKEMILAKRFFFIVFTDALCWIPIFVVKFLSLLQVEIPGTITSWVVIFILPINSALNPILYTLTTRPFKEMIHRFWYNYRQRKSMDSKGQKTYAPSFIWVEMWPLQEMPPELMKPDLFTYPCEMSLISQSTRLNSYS

B1: peptide of SEQ ID NO: 5 (peptide)
peptide: Ac-LEGREKVRAK(Ac)I[Aib][Aib]EGK([AEEA-AEEA-AEEA-AEEA-γGlu-γGlu-γGlu-Palmitoyl])STWS[Aib]RKK(Ac)-NH2
SMILES: CCCCCCCCCCCCCCCC(=O)N[C@@H](CCC(=O)N[C@@H](CCC(=O)N[C@@H](CCC(=O)NCCOCCOCC(=O)NCCOCCOCC(=O)NCCOCCOCC(=O)NCCOCCOCC(=O)NCCCC[C@H](NC(=O)CNC(=O)[C@H](CCC(=O)O)NC(=O)C(C)(C)NC(=O)C(C)(C)NC(=O)[C@@H](NC(=O)[C@H](CCCCNC(C)=O)NC(=O)[C@H](C)NC(=O)[C@H](CCCNC(=N)N)NC(=O)[C@@H](NC(=O)[C@H](CCCCN)NC(=O)[C@H](CCC(=O)O)NC(=O)[C@H](CCCNC(=N)N)NC(=O)CNC(=O)[C@H](CCC(=O)O)NC(=O)[C@H](CC(C)C)NC(C)=O)C(C)C)[C@@H](C)CC)C(=O)N[C@@H](CO)C(=O)N[C@H](C(=O)N[C@@H](Cc1c[nH]c2ccccc12)C(=O)N[C@@H](CO)C(=O)NC(C)(C)C(=O)N[C@@H](CCCNC(=N)N)C(=O)N[C@@H](CCCCN)C(=O)N[C@@H](CCCCNC(C)=O)C(N)=O)[C@@H](C)O)C(=O)O)C(=O)O)C(=O)O

Target: T1, RXFP1 receptor (endogenous, on OVCAR5 …)
Test: cell-based or functional assay

Binder	EC50 (nM), OVCAR 5 cells (cAMP) [nM]	EMax, OVCAR 5 cells (cAMP) [%]
Ac-K(Ac)EGREKVRAK(Ac)I[Aib][Aib]EGK([TTDS-TTDS-TTDS-γGlu-γGlu-γGlu-Palmitoyl])STFS[αMeK]RAK(Ac)-NH2 [peptide of SEQ ID NO: 81]	0.16	98
Ac-LEGREKVRAK(Ac)I[Aib][Aib]EGK([TTDS-TTDS-γGlu-γGlu-γGlu-Stearoyl])STWS[Aib]RKK(Ac)-NH2 [peptide of SEQ ID NO: 6]	0.27	95
Ac-LEGREKVRAK(Ac)I[Aib]IEGK([TTDS-TTDS-TTDS-γGlu-γGlu-γGlu-Palmitoyl])STWS[Aib]RKK(Ac)-NH2 [peptide of SEQ ID NO: 70]	1.34	94
B1	9.1	85
Ac-LEGREKVRAK(Ac)I[Aib][Aib]EGK([TTDS-TTDS-TTDS-γGlu-γGlu-γGlu-γGlu-Palmitoyl])STWS[Aib]RKK(Ac)-NH2 [peptide of SEQ ID NO: 62]	0.6	98
Ac-LEGRERVRAK(Ac)I[Aib][Aib]EGK([TTDS-TTDS-TTDS-γGlu-γGlu-γGlu-Palmitoyl])ST[Trp(5-Cl)]S[Aib]RRK(Ac)-NH2 [peptide of SEQ ID NO: 80]	0.63	93
Ac-LEGREKVRAK(Ac)I[Aib][Aib]EGK([TTDS-TTDS-TTDS-γGlu-γGlu-γGlu-Palmitoyl])SKFS[Aib]RKK(Ac)-NH2 [peptide of SEQ ID NO: 79]	0.45	95
Ac-LEGRERVRAK(Ac)I[Aib][Aib]EGK([TTDS-TTDS-TTDS-γGlu-γGlu-γGlu-Palmitoyl])STFS[Aib]RRK(Ac)-NH2 [peptide of SEQ ID NO: 76]	0.18	96
Ac-LEGRERVRAK(Ac)I[Aib][Aib]EGK([TTDS-TTDS-TTDS-γGlu-γGlu-γGlu-Palmitoyl])STWS[Aib]RKK(Ac)-NH2 [peptide of SEQ ID NO: 67]	0.48	95
Ac-LEGREKVRAK(Ac)I[Aib][Aib]EGK([TTDS-TTDS-TTDS-γGlu-γGlu-γGlu-Palmitoyl])STWS[Aib]RK(Ac)K-NH2 [peptide of SEQ ID NO: 68]	0.88	98
Ac-LEGREKVRAK(Ac)I[Aib][Aib]EGK([TTDS-TTDS-TTDS-γGlu-γGlu-γGlu-Stearoyl])STFS[Aib]RKK(Ac)-NH2 [peptide of SEQ ID NO: 61]	0.1	97
Ac-LEGREKVRAK(Ac)I[Aib][Aib]EGK([TTDS-TTDS-TTDS-γGlu-γGlu-γGlu-Palmitoyl])SKWS[Aib]RAK-NH2 [peptide of SEQ ID NO: 73]	0.2	95
Ac-LEGREKVRAK(Ac)I[Aib][Aib]EGK([TTDS-TTDS-TTDS-γGlu-γGlu-γGlu-Palmitoyl])STF[Aib]RRAK(Ac)-NH2 [peptide of SEQ ID NO: 72]	0.56	91
Ac-LEGREKVRAK(Ac)I[Aib][Aib]EGK([TTDS-TTDS-TTDS-γGlu-γGlu-γGlu-Palmitoyl])STWS[Aib]RAK-NH2 [peptide of SEQ ID NO: 71]	0.36	95
Ac-LEGREKVRAK(Ac)I[Aib][Aib]EGK([TTDS-TTDS-TTDS-γGlu-γGlu-γGlu-Palmitoyl])SQWS[Aib]RKK(Ac)-NH2 [peptide of SEQ ID NO: 63]	1.45	97
Ac-LEGREKVRAK(Ac)I[Aib]IEGK([TTDS-TTDS-TTDS-TTDS-γGlu-γGlu-γGlu-Palmitoyl])STWS[Aib]RKK(Ac)-NH2 [peptide of SEQ ID NO: 74]	0.54	94
Ac-LEGREKVRAK(Ac)I[Aib][Aib]EGK([TTDS-TTDS-TTDS-γGlu-γGlu-γGlu-Palmitoyl])STWS[Aib]RKK(Ac)-NH2 [peptide of SEQ ID NO: 1]	1.5	99
Ac-LEGREKVRAK(Ac)I[Aib][Aib]EGK([TTDS-TTDS-TTDS-TTDS-γGlu-γGlu-γGlu-Palmitoyl])STFS[αMeK]RAK(Ac)-NH2 [peptide of SEQ ID NO: 78]	0.18	99
Ac-LEGREKVRAK(Ac)I[Aib][Aib]EGK([TTDS-TTDS-TTDS-γGlu-γGlu-γGlu-Stearoyl])STFS[αMeK]RAK(Ac)-NH2 [peptide of SEQ ID NO: 7]	0.07	95
Ac-LEGRERVRAK(Ac)I[Aib][Aib]EGK([TTDS-TTDS-TTDS-TTDS-γGlu-γGlu-γGlu-Palmitoyl])STWS[Aib]RRK(Ac)-NH2 [peptide of SEQ ID NO: 75]	0.19	97
Ac-LEGREKVRAK(Ac)I[Aib][Aib]EGK([TTDS-TTDS-TTDS-γGlu-γGlu-γGlu-Palmitoyl])SRWS[Aib]RKK(Ac)-NH2 [peptide of SEQ ID NO: 64]	0.52	95
Ac-LEGRERVRAK(Ac)I[Aib][Aib]EGK([TTDS-TTDS-TTDS-TTDS-γGlu-γGlu-γGlu-Palmitoyl])STFS[Aib]RRK(Ac)-NH2 [peptide of SEQ ID NO: 77]	0.11	98
Ac-LEGREKVRAK(Ac)I[Aib][Aib]EGK([TTDS-TTDS-TTDS-γGlu-γGlu-γGlu-Palmitoyl])STWK(Ac)[Aib]RAK(Ac)-NH2 [peptide of SEQ ID NO: 66]	6.31	93
Ac-LEGREKVRAK(Ac)I[Aib][Aib]EGK([TTDS-TTDS-TTDS-γGlu-γGlu-γGlu-Palmitoyl])STWS[Aib]RK(Ac)R-NH2 [peptide of SEQ ID NO: 69]	0.78	97
Ac-LEGREKVRK(Ac)QI[Aib][Aib]EGK([TTDS-TTDS-TTDS-γGlu-γGlu-γGlu-Palmitoyl])STWS[Aib]RKK(Ac)-NH2 [peptide of SEQ ID NO: 65]	1.19	95
Ac-LEGREKVRAK(Ac)I[Aib][Aib]EGK([TTDS-TTDS-γGlu-γGlu-γGlu-Stearoyl])STFS[Aib]RKK(Ac)-NH2 [peptide of SEQ ID NO: 60]	0.15	95
Ac-LEGREKVRAK(Ac)I[Aib][Aib]EGK([TTDS-TTDS-TTDS-TTDS-γGlu-γGlu-γGlu-Stearoyl])STFS[Aib]RKK(Ac)-NH2 [peptide of SEQ ID NO: 59]	0.09	99
